Fewer inactive variants are shown than the library holds.
B1: TPR 5TU (parent)
chain: GGAUCUUCUCGAUCUAACAAAAAAGACAAAUCUGCCACAAAGCUUGAGAGCAUCUUCGGAUGCAGAGGCGGCAGCCUUCGGUGGCGCGAUAGCGCCAACGUUCUCAACUAUGACACGCAAAACGCGUGCUCCGUUGAAUGGAGUUUAUCAUG

Variants of: B1
Assay: polymerase ribozyme fitness, log enrichment relative to wild type (log ratio); higher = more active; in vitro selection for triplet polymerase activity
How it was run: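 Only genotypes with ≥10 input reads and ≥1 read per output were kept after Illumina sequencing of input and output libraries. These libraries were PCR-built, transcribed mutants of each subunit of a heterodimeric triplet polymerase ribozyme, each put through one triplicate in vitro selection round with frozen incubation at −7 °C, gel excision of extended constructs, streptavidin-bead capture and RT-PCR. Fitness is a logarithmic ratio of genotype enrichment to wild-type enrichment, from inverse-variance-weighted replicate averages, with the logarithm in base 2.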

Variant	polymerase ribozyme fitness (log ratio)
G42A C96A A122G A138G U145G	≤ -4.2
G42A U56A C95U U111G	-4
G42A C75G C96G	≤ -4.2
A41G G88U	-3.82
A41U C95U A98C	-1.48
A41U G65U G141C	≤ -4.2
G42A G94U	≤ -4.2
G42C U55A A60U C87U A115U	≤ -4.2
G42U A60G U139C U148A	-4.08
A41U A60U U144G	-0.464
U44A C131G	≤ -4.2
G42C A66C	≤ -4.2
A41U C57U C85U	-1.12
G42C U148C	≤ -4.2
G42C C51G U56A G83A C105U A122U U148A	≤ -4.2
C43U U56A A66C C75A C85G	≤ -4.2
A41U C54U C96A	-2.16
A41U A52G A107U G140U C149A	≤ -4.2
G42A A64G U102G	≤ -4.2
C43A G94C G143U	≤ -4.2
G42U G50A C118U A122C	≤ -4.2
A41U G71A G83C G84U U145C A147U	≤ -4.2
A41G U56A C79U U82G C85U A122G C129A G136U	≤ -4.2
A41U C85U C99A C105A C118G A119C	≤ -4.2

Variant	polymerase ribozyme fitness (log ratio)
G42A G92C	-3.91
C43G U55A C96A A98C A121U	≤ -4.2
A41U U144G	0.164
A41U G80U U101C	-4.09
G42A A47C C85G C96G C116A A147U	≤ -4.2
U44A A49U C72G C79G G92U A150G	≤ -4.2
G42C A49C	≤ -4.2
C43G C57A A60U G141C	-4.18
C43G G88A C95U C105A	≤ -4.2
G42A G100U	≤ -4.2
C43U G86U C125A	≤ -4.2
C43G U55C G70A C85A C87G C95U G133U	≤ -4.2
G42C U53A C79U C85G A89U C125U	≤ -4.2
G42U C85A C99U C108G A110G	≤ -4.2
A41G U45A C54G G92U	-2.74
A41U G140A	-3.78
A41U U145A	-0.141
C43U U61A G80A G94U A106C A122U	≤ -4.2
A41U A49C C96G A113G U135C C149U	≤ -4.2
G42C A60G A113U G140U	-3.85
C43G A60C G62A C96U U102G	≤ -4.2
A41G G50C C93G C103U C123A U127C	≤ -4.2
G42A G86A	-3.97
U44A C116G	-4.19

Variant	polymerase ribozyme fitness (log ratio)
U44A C95U C96G A120C	≤ -4.2
C43U U61G G94U C116U U144G C149G	≤ -4.2
G42C A49U C63U	-4.12
A41G G94C	0.425
A41U G88A C95G A106C A120G	≤ -4.2
U44A C79U A89G U104A A107G	≤ -4.2
A41U G84C C103G	≤ -4.2
A41U C69U C87U	-2.75
C43U C85U G88U C96A C123G G124C C129U G133C U139C	≤ -4.2
G42A G58C C79A C118U A142U	≤ -4.2
C43A G50A A106G	≤ -4.2
G42C U55A G92C A115U A150U	≤ -4.2
C43U C132U	≤ -4.2
G42A G48U G58U C75G G83A U104G	≤ -4.2
A41U G80A A97U	-1.76
G42C C116G A120U A138G G141U G143A	≤ -4.2
G42U A52C C93U	≤ -4.2
A41G G81C U82C	-0.145
A41U G136A	0.0389
C43U C54U U61A A64C G84U U127A C131G A142G	≤ -4.2
C43G G80U G84A C93A U134C	≤ -4.2
U44A C93U C99A U111G A138G G152U	-3.36
G42C U101G G136U	≤ -4.2
G42C U53A C99U	≤ -4.2

Variant	polymerase ribozyme fitness (log ratio)
A41G U104G C105U A122C	-1.26
A41U G86U C125U U127G	-4.16
C43U A47C U56A U78G C87G	≤ -4.2
A41U C51A G86C G88C	≤ -4.2
G42C C43U C54U A98G A120G	≤ -4.2
A41U A66C G67A C79G C96U A150U	≤ -4.2
A41U G58A A147U	0.803
U44A A52G C85A C118U	≤ -4.2
C43A A115U C118G	≤ -4.2
G42A G83U A97U	≤ -4.2
A41U U44A G65C C85G G143U	≤ -4.2
G42A G71A A91U A97U G100C	≤ -4.2
C43U A89U G94U C105G C132A U151C	≤ -4.2
C43A C69G G92C	≤ -4.2
C43U U82G U101G	-4.04
G42A U56A G67U G94A	≤ -4.2
A41U U111A	-3.7
C43U C63U A73C U78A G84U U90G C93U A119U A142U	≤ -4.2
U44A A52C	-3.94
C43U U53G	≤ -4.2
G42C A47G G88C	≤ -4.2
G42A G50A A66U G88A C96G U139C	≤ -4.2
C43G C95U C96A	-4.15
C43G A49C C76A G84A C105G	≤ -4.2

Variant	polymerase ribozyme fitness (log ratio)
U44A C54A C75G G92U U145C	≤ -4.2
C43U C93G U109G	≤ -4.2
C43G G86C A137G	≤ -4.2
U44A A49C C93U C123G U130G	≤ -4.2
U44A A73U C105G A120G	≤ -4.2
G42A A47C U77G G92U	≤ -4.2
G42C G83A A106U	≤ -4.2
C43U G83U A120G	≤ -4.2
C43U C72U G92U	≤ -4.2
A41U G80A	-0.78
G42C C43A U55G C57U A66C A137C G141C	≤ -4.2
G42U G59U G92U G126A U135A U144A	≤ -4.2
C43A C87A A89G C93U	≤ -4.2
G42A G50A C57U G67C C79U G83U C93U	≤ -4.2
G42U G80A U104C	≤ -4.2
G42U A64C C79U G88A A106G A107C A147U	≤ -4.2
G42A A47C U55A C85U	≤ -4.2
G42C G86U U109G G141U	≤ -4.2
U44A C85G U90C U104G	≤ -4.2
G42A A52C	-3.82
G42A A52G G70C G141C	≤ -4.2
C43A G83C U90G G140U	≤ -4.2
C43A U44A A91U G141U A150C	≤ -4.2
A41U G92U	-1.05

Variant	polymerase ribozyme fitness (log ratio)
G42A C114G G133U A150C	≤ -4.2
A41U G117C	-0.836
G42C C51U C103G	≤ -4.2
A41U C51G G58U U61A G68A C96A A97C U102C	≤ -4.2
G42C C54A A64C U77A G83C G126A U145A	≤ -4.2
G42C U44A U90G G140U A147U	≤ -4.2
A41U U82C C87U C125G G126C U144G	-2.6
C43A C87U G136C	≤ -4.2
C43G U44A G58A G88U C95U U135G	≤ -4.2
C43U G74C C93G U146A	≤ -4.2
C43U U78A C85A A115C	≤ -4.2
G42A G48A A97G A138U	≤ -4.2
C43G A49C G68C C72U A97U	≤ -4.2
A41G U44G C75A G92A U102A U148C	≤ -4.2
G42A A142C	-4.17
A41U G50A A52C C93U G100A A119C	≤ -4.2
U44A C54U U82G C87A C123U	≤ -4.2
A41U G62C G136U	-3.69
C43G A49C C51U G62A G88A A91G C125U A137G	≤ -4.2
C43G G86A	≤ -4.2
A41G G42A G92C U111C A113U C125G	≤ -4.2
G42C C95A C99G A107U	≤ -4.2
A41U C105G	-1.73
U44A C76A A91G	≤ -4.2

Variant	polymerase ribozyme fitness (log ratio)
G42A U53A U77G A91U A115G U135G	≤ -4.2
G42A C51U A64C G80A U127A	≤ -4.2
A41G U77G C85G C96U G124C	≤ -4.2
U44A C54A U77A G92C C118A A120G G136C G140A	≤ -4.2
G42C A52C A64G G80A C96A C108U A110G	≤ -4.2
C43A U61A U127C C132U U145G	≤ -4.2
U44A C51U C76U A106U A110G	≤ -4.2
A41U A47U C93G	-4.14
A41G U55G G59A U145A	-0.554
G42C U53A G83C G126U	≤ -4.2
G42A G59A G74U C96G A137G	≤ -4.2
G42C G92A	≤ -4.2
A41G C96A C149U	-0.509
A41U C85G G126A	-2.76
G42C A89G G92A G126U G133A	≤ -4.2
G42A G88A G124A C125U C129A	≤ -4.2
G42C U61A G88A C95U U104G	≤ -4.2
A41U C114A	-4.16
C43A G80C G94U	≤ -4.2
G42U C57A	≤ -4.2
C43U G46A U90C C95U A106U	≤ -4.2
A41U G68U C93U A106G	≤ -4.2
C43G G67U G83U C93G C103U C116A	≤ -4.2

— the RNAGym collection of RNA variant scans (doi:10.1073/pnas.2313332121)
